# According to patent publication US20240270793A1, “COMPOSITIONS” (UNIVERSITY OF SOUTHAMPTON, priority 2020, published 2024):
# Square brackets hold non-standard residues; d marks the D form. Peptide text beside a SMILES is read from it. Phe(4-I) = N[C@@H](Cc1ccc(I)cc1)C(=O)O
# How the values were obtained:
# HIF-1α PAS-B (238-349) = target: T1, HIF-1α PAS-B (238-349) (Homo sapiens, UniProt Q16665); assay: MST binding to recombinantly expressed HIF-1α PAS-B domain
# T1 construct: human HIF-1α PAS-B (238-349); His tag; made in house; host or cells: E. coli BL21(DE3)-Rosetta, pET28a
# Description: Genes encoding for human HIF-1α PAS-B (238-349) and HIF-2α PAS-B (240-350) were each cloned into pET28a vectors at the BamHI and SacI restriction sites. The recombinant plasmids were next transformed into BL21(DE3)-Rosetta chemically competent cells. Cells were grown in LB media at 37° C. to an OD600 of 0.7, after which expression was induced by addition of 0.5 mM IPTG. Following overnight expression at 16° C., cells were pelleted and resuspended in buffer containing 50 mM Tris, 150 mM NaCl, 5% glycerol, 1 mM TCEP, protease inhibitors (Roche) and 20 mM imidazole, pH 8.0. Cells were lysed by sonication, and the supernatant applied to a 1 mL Histrap FF affinity column. The His-tagged protein of interest was eluted with buffer containing 50 mM Tris, 150 mM NaCl, 5% glycerol, 1 mM TCEP and 250 mM imidazole. The protein was then loaded onto a HiLoad 16/600 superdex 75 pg size exclusion column (GE healthcare) equilibrated with assay buffer containing 50 mM Tris, 150 mM NaCl, 5% glycerol and 1 mM TCEP, pH 8.0. Fractions containing the desired protein were flash-frozen and stored at −80° C. prior to use.
# (§1) HIF-α proteins were labelled with Monolith NT-647 labelling dye (Nanotemper Technologies GmbH) according to the manufacturer's instructions. MST experiments were performed on a Monolith NT.115 system (Nanotemper Technologies GmbH), in assay buffer containing 50 nM labelled protein, 10% DMSO and 0.05% TWEEN-20. MST measurements were performed using 50% LED and 50% MST power.
# [1] = tested on: 1α PAS-B mutants C255A, C334A or C337A; assay: MST binding to 1α PAS-B cysteine mutants; design: species or system human; details: mutations C255A
# Source text: The potency imparted by the thiol motif raised the possibility of the interaction being disulfide-mediated. To counter this, all assays thus far had been performed with excess reducing agent tris(2-carboxyethyl)phosphine (TCEP) present in the buffers. Nonetheless the possibility was still considered due to the importance of the thiol moiety. As the HIF-α PAS-B domain contains multiple cysteines in internal cavities there remained the potential for disulfide bond formation within a solvent and TCEP-inaccessible region of the protein-peptide complex. Three 1α PAS-B mutants were therefore prepared with mutations C255A, C334A or C337A and the activity of the peptide CRLIIF [SEQ ID NO: 6, cyclic peptide #4] again tested by MST. It was anticipated that if a disulfide bond were to form with any of these then there would be a significant loss of binding for the peptide with the corresponding mutant.
# as §1
# HIF-2α/1α:HIF-1β RTHS = assay: RTHS secondary screening, drop-spotting regrowth assay; format: cell-based; details: SICLOPPS-expressed peptide, control CAAAAA
# Description: A screen for cyclic peptide inhibitors of HIF-2 dimerization was performed using SICLOPPS with a HIF-2 RTHS, using a method described previously.^8,9 (FIG. 1a). A secondary screen was then also conducted on the HIF-1 RTHS to compare selectivity, after which the hits found to inhibit both HIF-2 and HIF-1 were chosen for further review (FIG. 1b). SICLOPPS plasmids that produced a growth advantage in both systems were further screened in an unrelated p6/UEV RTHS to eliminate false positives (FIG. 1b).
# It was expected that the similarity between these peptides would translate to a common structure-affinity relationship trend between the three, and that any differences in affinity could be used to inform optimisation efforts. In addition, all three peptides contained a basic side chain (arginine or lysine), which are protonated under physiological conditions, and would therefore aid solubility and potentially provide a useful polar interaction with the proteins themselves. […] The splicing efficiency of peptides from the Ssp intein may vary slightly depending on their sequence, thus resulting in different concentrations of peptide in the cell, which may therefore bias the extent of regrowth response.^10 It was therefore decided that to fully validate these hits, that the binding activity was to be assessed under in vitro assay conditions. […]
# [2] = cited from earlier work
# [3] = target: HIF (hypoxia inducible factor) in the YFP-reporter T-REx-293 (HEK) cell line; assay: cell-based or functional assay
# [4] = target: T2, human HIF-2α PAS-B (240-350), recombinant, His-tagged (human, UniProt Q99814 240-350, labelled with Monolith NT-647 dye for MST); assay: MST, HIF-2α PAS-B against HIF-1α PAS-B
# T2 construct: range 240-350; Expressed in E. coli BL21(DE3)-Rosetta from pET28a; also called PAS-B domain of HIF-2α; not shown: His tag from pET28a vector (BamHI/SacI cloning)
# Description: as §1
# [5] = target: T3, human HIF-1α PAS-B (238-349), recombinant, His-tagged (human, UniProt Q16665 238-349, labelled with Monolith NT-647 dye for MST); assay: MST, NT-647-labelled recombinant HIF-1α PAS-B
# T3 construct: range 238-349; Expressed in E. coli BL21(DE3)-Rosetta from pET28a; also called HIF-1α PAS-B domain; PAS-B domain of HIF-1α; not shown: His tag from pET28a vector (BamHI/SacI cloning)
# Description: as §1
# [6] = target: T2, human HIF-2α PAS-B (240-350), …; assay: MST, NT-647-labelled recombinant HIF-2α PAS-B
# Description: as §1
# [7] = target: T3, human HIF-1α PAS-B (238-349), …; assay: MST, HIF-1α PAS-B; bar chart of Kd (µM) for residues at position 6 of CRLIIF
# [8] = target: T3, human HIF-1α PAS-B (238-349), …; assay: MST, NT-647-labelled recombinant 1α PAS-B
# Description: as §1
# [9] = target: T3, human HIF-1α PAS-B (238-349), …; assay: MST, NT-647-labelled recombinant PAS-B domain
# Description: as §1
# [10] = target: T2, human HIF-2α PAS-B (240-350), …; assay: MST, NT-647-labelled recombinant PAS-B domain
# Description: as §1
# [11] = target: T3, human HIF-1α PAS-B (238-349), …; assay: MST, peptide titrated against labelled HIF-1α PAS-B [top panel]
# [12] = target: T2, human HIF-2α PAS-B (240-350), …; assay: MST, peptide titrated against labelled HIF-2α PAS-B [top panel]
# [13] = target: T3, human HIF-1α PAS-B (238-349), …; assay: MST, ratio of Kd on HIF-2α PAS-B to Kd on HIF-1α PAS-B
# [14] = target: T3, human HIF-1α PAS-B (238-349), …; assay: MST, peptide titrated against labelled HIF-1α PAS-B [bottom panel]
# [15] = target: T2, human HIF-2α PAS-B (240-350), …; assay: MST, peptide titrated against labelled HIF-2α PAS-B [bottom panel]
# [16] = target: T3, human HIF-1α PAS-B (238-349), …; assay: MST, peptide titrated against labelled HIF-1α PAS-B [middle panel]
# [17] = target: T2, human HIF-2α PAS-B (240-350), …; assay: MST, peptide titrated against labelled HIF-2α PAS-B [middle panel]
# T2 sequence (Q99814 240-350): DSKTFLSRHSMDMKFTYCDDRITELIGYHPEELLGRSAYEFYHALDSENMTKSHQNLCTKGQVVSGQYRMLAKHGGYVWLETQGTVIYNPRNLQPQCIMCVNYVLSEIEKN
# T3 sequence (Q16665 238-349): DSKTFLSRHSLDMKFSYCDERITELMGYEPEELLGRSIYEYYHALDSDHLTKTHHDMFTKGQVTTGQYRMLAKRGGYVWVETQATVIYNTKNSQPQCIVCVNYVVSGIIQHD
# T1 sequence (Q16665 238-349): as above
molecule,measurement,setting,value
"CC[C@H](C)[C@@H]1NC(=O)[C@H](CC(C)C)NC(=O)[C@H](CCCNC(=N)N)NC(=O)[C@H](CS)NC(=O)[C@H](Cc2ccccc2)NC(=O)[C@H]([C@@H](C)CC)NC1=O [Cyclic peptide #4, cyclo-cys agr leu ile ile phe] (cyclo(CRLIIF))",greater affinity than CKLLIF,HIF-1α PAS-B (238-349); MST against 1α PAS-B,about 3 fold
same,affinity for 1α PAS-B mutants compared to wild-type protein,[1],identical to that of the wild-type protein
"CC[C@H](C)[C@@H]1NC(=O)[C@H](C(C)C)NC(=O)[C@H](CCCNC(=N)N)NC(=O)[C@H](CS)NC(=O)[C@H](Cc2ccccc2)NC(=O)[C@H]([C@@H](C)CC)NC1=O [Cyclic peptide #3, cyclo-cys arg val ile ile phe] (cyclo(CRVIIF))",selectivity for 1α over 2α,"HIF-1α PAS-B (238-349); MST affinities, 1α vs 2α PAS-B",2 fold
same,regrowth response in drop-spotting assay,HIF-2α/1α:HIF-1β RTHS,greatest regrowth response
"CLLFVY: previously reported selective inhibitor of HIF-1 dimerization, cyclic peptide Cys leu leu phe val tyr",solubility of previously reported HIF-1 inhibitor,[2],comparatively insoluble
"cyclo(CRLII[Phe(4-I)]) (SMILES CC[C@H](C)[C@@H]1NC(=O)[C@H](CC(C)C)NC(=O)[C@H](CCCNC(=N)N)NC(=O)[C@H](CS)NC(=O)[C@H](Cc2ccc(I)cc2)NC(=O)[C@H]([C@@H](C)CC)NC1=O, also called CRLIIF(4I); Cyclo-CRLIIF(4-I)) [cyclo-cys arg leu ile ile (4-I)phe]","IC50 in the YFP reporter assay (HRE-driven YFP in T-REx-293 cells, hypoxia)",[3],35 µM
same,fold loss in Kd compared to the 1α isoform,[4],2.2 fold
same,Kd,[5],0.85 µM
same,fold improvement in affinity relative to the parent compound CRLIIF,[5],4.5 fold
same,Kd,[6],1.9 µM
"CRLIIY (head-to-tail cyclic (cyclo-), also called Cyclo-CRLIIY; cyclic peptide #29) [cyclo-cys arg leu ile ile tyr]",binding result,[7],binds
"CKLIIF (head-to-tail cyclic (cyclo-), also called CKLIIF; cyclic peptide #1) [cyclo-cys lys leu ile ile phe]",Kd,[8],2.5 µM
same,Kd,[9],~2 µM
same,Kd,[10],~2 µM
same,Kd,[11],2.6 µM
same,Kd,[12],2.2 µM
"CRVIIF (head-to-tail cyclic (cyclo-), also called CRVIIF; cyclic peptide #3) [cyclo-cys arg val ile ile phe]",Kd,[9],61 µM
same,Kd,[10],118 µM
same,fold selectivity for 1α over 2α,[13],~2 fold
same,Kd,[14],65.5 µM
same,Kd,[15],123 µM
"CRLLIF (head-to-tail cyclic (cyclo-), also called CRLLIF; cyclic peptide #2) [cyclo-cys arg leu leu ile phe]",Kd,[8],14 µM
same,Kd,[16],14.5 µM
same,Kd,[17],10.2 µM
